Measured values reported in US8252303B2, “Injectable depot compositions and uses thereof” (Durect Corporation, priority 2002, dated 2012).

Assay: Preliminary stability of PDGF preformulations in the gel vehicle (SEC and rpHPLC)
Assay type: physicochemical
Conditions: 5° C. for 1 day, Bulk PDGF as reference
Protocol: All lyophilized protein formulations as listed in Tables 8 and 9, were mixed into a gel vehicle with the composition of PLGA RG502/Benzyl Benzoate (BB)/benzyl alcohol (BA) of 40/45/15 with the loading of the protein formulation about 10 wt %. After being stored at 5° C. for 1 day, the mixtures were extracted with an organic solvent mixture of methylene chloride and acetone (ratio of 50/50) as described in the example 15 above. The purity of the PDGF-BB was analyzed by both reverse phase HPLC (rpHPLC) and size exclusion chromatography (SEC). In general, no distinguishable degradation of the PDGF-BB was found in the PDGF-BB formulation incorporated with the excipients as described in the Example 18 and mixed with the gel vehicle of the present invention.

## Bulk PDGF: PDGF-BB bulk solution, i.e., aqueous solution of PDGF in acetate buffer
Table 8 (succinate)
  % PDGF dimmer by SEC: 0.73%
  % other peaks by rp-HPLC: 0.0%
  % peak at RRT = 1.10 by rp-HPLC: 1.2%
Table 9 (histidine)
  % PDGF dimer by SEC: 0.73%
  % other peaks by rp-HPLC: 0.0%
  % peak at RRT = 1.10 by rp-HPLC: 1.2%
